Assay results from patent publication US20130052198A1, “ANTI-INFLAMMATORY FACTORS” (THE GENERAL HOSPITAL CORPORATION, priority 2010, published 2013).
“Also recorded” adds a separate entry of the source.

Assays:
[1] = tested on: BALB/cJ mice challenged with a lethal dose of LPS; assay: Lethal LPS model, survival; assay type: in vivo; conditions: 350 μg LPS i.p. with 4 μg protein; monitored seven days
Experimental: (§1) FIG. 8: In vivo hit screen and survival study. (a) Schematic of the in vivo LPS assay. Proteins were administered intraperitoneal (IP) at the concentration that elicited the strongest effect in vitro, followed by IP administration of LPS in conjunction with a second dose of the proteins 16 hours later. Two days after the combined LPS and second protein dose, the mice were sacrificed and assessed for changes in serum cytokines and tissue histology. (b) Serum IL-10 levels of BALB/cJ mice subjected to the in vivo LPS assay. * p<0.001 compared to saline. (c) Serum TNF-α levels of BALB/cJ mice subjected to the in vivo LPS assay. * p<0.001 compared to saline, ** p<0.05 compared to BMSC-CM. (d) Representative micrographs of lung tissue from mice subjected to the in vivo LPS assay stained with hematoxylin and eosin. (e) Survival of mice subjected to a lethal dose of LPS i.p. (350 μg) concurrently with i.p. saline vehicle (bold dark blue line), 5 μg Anti-TNF-α antibody (thin dark blue line), 4 μg PENK (bold light blue line) or 4 μg MFAP5 (thin light blue line). Scale bar=200 μm.
All procedures were performed in accordance with the animal rights policies of the Massachusetts General Hospital Subcommittee on Research Animal Care. […] Mice were monitored for survival for seven days (168 hours).

[2] = tested on: colitic mice (TNBS colitis); assay: TNBS colitis in mice, colon histopathology; assay type: in vivo; conditions: 3 μg protein twice over 24 h; sacrifice at day 2; compared to vehicle (saline)
Experimental: FIG. 6: Administered MFAP5 and LGALS3BP protect mice from developing TNBS colitis. Mice were presensitized via the skin with 1% TNBS one week prior to intra-rectal administration of 3 mg of TNBS per mouse in a mixture of 50% EtOH and 50% sterile water to induce colitis. Mice were treated with 3 μg each of MFAP5, LGALS3BP and GALNT1 twice over a 24 hour period, once in conjunction with the TNBS administration and once 24 hours later. Mice were then sacrificed at day 2 and tissue collected for analysis. As expected, mice treated with vehicle (saline) developed extensive inflammation of the colon with loss of crypts and frank necrosis of the intestinal epithelium.
MFAP5, LGALS3BP and PENK all protected the colonic epithelium from the hallmark features of TNBS colitis: necrosis, inflammatory infiltrate and loss of crypts. Especially at the microscopic level, the tissue of the MFAP5, LGALS3BP and PENK treated animals looked mostly normal with minor foci of inflammation and edema.

[3] = tested on: human leukocytes in culture; assay: Cytokine production (IL-10 or IFN-γ) in human leukocytes in culture; assay type: cell-based; conditions: concentrations within five orders of magnitude of 10 μg/mL
Experimental: (§2) Leukocytes were prepared from fresh whole human blood, collected and spun in the presence of Ficoll for 30 minutes at 1500×g. The mononuclear cell layer was transferred to a new tube where it was washed once with RPMI 1640. The mononuclear cells were plated at a density of 1×10^5 per well of a 96-well plate in 50 μL of RPMI 1640 per well. MSC-CM was then immediately added to each well and allowed to incubate in the presence of the mononuclear cells for 16 hours. After incubation, 50 μL of RPMI 1640 containing 10 μg/mL of LPS was added to each well and allowed to incubate for an additional 5 hours. The resultant supernatants were collected and analyzed via ELISA for human interleukin-10 (IL-10). This procedure of incubating leukocytes with MSC-CM to determine IL-10 stimulating activity will be henceforth referred to as the “IL-10 assay”.
(§3) Preparations and use of MSC-CM, Fb-CM, LPS-stimulated MSC-CM, leukocytes were as described in Examples 1-3 and the Figures. These conditioned media preparations were added to leukocyte cultures for 16 hours, after which the culture was stimulated with LPS at 10 μg/ml. The medium from this culture was collected 24 hours after LPS stimulation of leukocytes and analyzed using an IFN-γ ELISA.

[4] = tested on: human peripheral blood mononuclear cells (PBMCs); assay: PBMC potency assay (IL-10 assay): IL-10 secretion by LPS-stimulated PBMCs, ELISA; assay type: cell-based; conditions: recombinant molecules diluted in RPMI 1640
Description: FIG. 1: MSC conditioned medium causes peripheral blood mononuclear cells to secrete IL-10 in response to LPS, providing the basis for differential gene expression analysis to identify genes responsible for the increased activity. (a) Generalized schematic of EPS methodology. Protein products are derived from various cell types in the form of conditioned media and screened for activity in an in vitro potency assay. […] Recombinant protein products of the enriched gene list are then screened in a potency assay and the candidates with the highest activity are assessed for activity in vivo. (b) In vitro potency assay. This assay entails incubating primary human peripheral blood mononuclear cells (PBMCs) in the presence of protein products (e.g., conditioned medium from a cell) for 16 hours, followed by stimulation of the PBMCs with LPS for five hours, and measurement of IL-10 secretion into the supernatant via ELISA. (c) Time course of IL-10 expression from PBMCs when incubated with either bone marrow stromal cell conditioned medium (BMSC-CM) or unconditioned medium (DMEM) in the potency assay. (d) Comparison of potency assay activity of conditioned medium from normal human dermal fibroblasts (FB-CM), BMSCs (BMSC-CM) and BMSCs preincubated with LPS prior to conditioning (BMSCLPS-CM). * p<0.001 compared to FB-CM, ** p<0.001 compared to BMSC-CM. (e) Schematic of the differential gene expression comparison strategy to select for genes uniquely expressed at high levels in LPS stimulated MSCs (MSCLPS) compared to MSCs and fibroblasts (FBs). Analysis was then conducted on the genes identified to select for genes that were most likely to be responsible for secreted proteins. MSCLPS, LPS stimulated MSC; FB, fibroblast. […]
Leukocytes were prepared from fresh whole human blood, collected and spun in the presence of Ficoll for 30 minutes at 1500×g. […] The resultant supernatants were collected and analyzed via ELISA for human interleukin-10 (IL-10). […]

[5] = tested on: BALB/cJ mice challenged with a sub-lethal dose of LPS; assay: In vivo LPS assay, sub-lethal LPS model: serum cytokines and lung histology
Experimental: as §1
All procedures were performed in accordance with the animal rights policies of the Massachusetts General Hospital Subcommittee on Research Animal Care. For the sub-lethal LPS model, eight week old female BALB/cJ mice (n≧3) (Jackson Laboratories, Bar Harbor, Me.) were administered an initial dose of either vehicle or one of the experimental therapies IP: 200 μL of saline (vehicle), or 3 μg of protein (e.g., GALNT1, LGALS3BP, MFAP5 or PENK) diluted in 200 μL of saline, or 1 mL of 1×BMSC-CM. 16 hours later, mice received a second dose of either vehicle or therapy in conjunction with a dose of 100 μg of LPS (E. coli 0111:B4; Sigma, St. Louis, Mo.) diluted in physiological saline. 48 hours later, mice were sacrificed and tissue and blood were collected for analysis. Serum was tested for the presence of IL-10 and TNF-α via ELISA and lungs, livers and kidneys of the animals were preserved for hematoxylin and eosin staining. For the lethal LPS model, eight week old female BALB/cJ mice (n≧5) were co-administered a lethal dose of LPS (350 μg LPS in 100 μL physiological saline) and either vehicle (negative control), 5 μg anti-TNF-α (positive control; R&D Systems, Minneapolis, Minn.), 4 μg MFAP5 diluted in 100 μL of physiological saline, or 4 μg of PENK diluted in 100 μL of physiological saline. Mice were monitored for survival for seven days (168 hours).

[6] = tested on: leukocytes; assay: IFN-γ production by LPS-stimulated leukocytes, ELISA; assay type: cell-based, human
Experimental: as §2, §3

[7] = 3 μg protein or 1 mL 1×BMSC-CM IP, twice, 100 μg LPS, 48 h later, compared to saline

Molecule | survival [1] | protection from TNBS colitis (colon histopathology) [2] | promote IL-10 production or suppress IFN-γ production [3] | increase of IL-10 production compared to 10×MSC-CM [4] | serum IL-10 levels [5, 7] | serum TNF-α [5, 7] | lung histology (lung protection) ([5]; hematoxylin and eosin, sub-lethal LPS model, compared to vehicle) | TNF-α suppression compared to BMSC-CM ([5]; serum, sub-lethal LPS model) | IFN-γ production of leukocytes stimulated with LPS ([6]; 16 h incubation, LPS 10 μg/ml, medium collected 24 h after LPS) | dose-dependency of IFN-γ production ([6]; HAPLN1 diluted in RPMI 1640)
MFAP5: Microfibrillar-associated protein 5, ECM glycoprotein; recombinant form tested (protein, UniProt Q13361 22-173, looked up) Microfibrillar-associated …: IPLGVNSQRGDDVTQATPETFTEDPNLVNDPATDETVLAVLADIAPSTDDLASLSEKNTTAECWDEKFTCTRLYSVHRPVKQCIHQLCFTSLRRMYIVNKEICSRLVCKEHEAMKDELCRQMAGLPPRRLRRSNYFRLPPCENVDLQRPNGL | significant survival benefit | protect the mice from developing acute colitis; also recorded: significant attenuation of colitis; also recorded: protected from developing extensive colonic inflammation | either promote IL-10 production or suppress IFN-γ production | superior to that induced by 10×MSC-CM | Significantly elevated | significantly suppressed | superior lung protection | superior TNF-α suppression | – | –
HAPLN1: Hyaluronan and proteoglycan link protein 1; purified, recombinant form (protein, UniProt P10915 16-354, looked up) Hyaluronan and proteoglycan …: DHLSDNYTLDHDRAIHIQAENGPHLLVEAEQAKVFSHRGGNVTLPCKFYRDPTAFGSGIHKIRIKWTKLTSDYLKEVDVFVSMGYHKKTYGGYQGRVFLKGGSDSDASLVITDLTLEDYGRYKCEVIEGLEDDTVVVALDLQGVVFPYFPRLGRYNLNFHEAQQACLDQDAVIASFDQLYDAWRGGLDWCNAGWLSDGSVQYPITKPREPCGGQNTVPGVRNYGFWDKDKSRYDVFCFTSNFNGRFYYLIHPTKLTYDEAVQACLNDGAQIAKVGQIFAAWKILGYDRCDAGWLADGSVRYPISRPRRRCSPTEAAVRFVGFPDKKHKLYGVYCFRAYN | – | – | either promote IL-10 production or suppress IFN-γ production | – | – | – | – | – | independently reduce IFN-γ production | dose-dependency of IFN-γ production over several orders of magnitude
